This is an account of results in IntAct's records for PubMed 21134644.

One experiment deals with itb1_human ITGB1 (UniProt P05556).
Chain of itb1_human ITGB1 (P05556 whole entry): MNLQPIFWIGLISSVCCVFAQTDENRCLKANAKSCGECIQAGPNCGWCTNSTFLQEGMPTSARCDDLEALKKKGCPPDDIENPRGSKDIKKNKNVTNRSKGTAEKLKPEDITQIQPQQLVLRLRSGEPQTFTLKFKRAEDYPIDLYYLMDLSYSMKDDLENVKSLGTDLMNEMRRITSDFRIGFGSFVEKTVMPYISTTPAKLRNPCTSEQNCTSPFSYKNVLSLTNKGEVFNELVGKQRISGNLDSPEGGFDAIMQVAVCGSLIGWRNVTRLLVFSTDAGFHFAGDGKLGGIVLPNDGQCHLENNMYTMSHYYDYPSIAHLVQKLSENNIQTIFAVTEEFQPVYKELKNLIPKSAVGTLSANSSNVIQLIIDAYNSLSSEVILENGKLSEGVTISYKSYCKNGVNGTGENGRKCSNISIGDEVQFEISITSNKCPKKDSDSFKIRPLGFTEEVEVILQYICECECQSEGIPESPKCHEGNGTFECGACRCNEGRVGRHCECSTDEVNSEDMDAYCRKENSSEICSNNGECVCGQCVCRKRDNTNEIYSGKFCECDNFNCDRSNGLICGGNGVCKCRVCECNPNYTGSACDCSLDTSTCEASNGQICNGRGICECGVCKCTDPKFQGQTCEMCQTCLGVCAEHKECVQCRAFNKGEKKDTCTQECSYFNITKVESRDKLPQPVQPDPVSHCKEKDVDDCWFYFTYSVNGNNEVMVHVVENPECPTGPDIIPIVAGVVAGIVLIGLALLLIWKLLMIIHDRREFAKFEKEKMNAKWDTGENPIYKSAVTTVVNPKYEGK

Chain of ITGB1, P05556-5 (P05556 other isoform, or with tags, fused parts or gaps): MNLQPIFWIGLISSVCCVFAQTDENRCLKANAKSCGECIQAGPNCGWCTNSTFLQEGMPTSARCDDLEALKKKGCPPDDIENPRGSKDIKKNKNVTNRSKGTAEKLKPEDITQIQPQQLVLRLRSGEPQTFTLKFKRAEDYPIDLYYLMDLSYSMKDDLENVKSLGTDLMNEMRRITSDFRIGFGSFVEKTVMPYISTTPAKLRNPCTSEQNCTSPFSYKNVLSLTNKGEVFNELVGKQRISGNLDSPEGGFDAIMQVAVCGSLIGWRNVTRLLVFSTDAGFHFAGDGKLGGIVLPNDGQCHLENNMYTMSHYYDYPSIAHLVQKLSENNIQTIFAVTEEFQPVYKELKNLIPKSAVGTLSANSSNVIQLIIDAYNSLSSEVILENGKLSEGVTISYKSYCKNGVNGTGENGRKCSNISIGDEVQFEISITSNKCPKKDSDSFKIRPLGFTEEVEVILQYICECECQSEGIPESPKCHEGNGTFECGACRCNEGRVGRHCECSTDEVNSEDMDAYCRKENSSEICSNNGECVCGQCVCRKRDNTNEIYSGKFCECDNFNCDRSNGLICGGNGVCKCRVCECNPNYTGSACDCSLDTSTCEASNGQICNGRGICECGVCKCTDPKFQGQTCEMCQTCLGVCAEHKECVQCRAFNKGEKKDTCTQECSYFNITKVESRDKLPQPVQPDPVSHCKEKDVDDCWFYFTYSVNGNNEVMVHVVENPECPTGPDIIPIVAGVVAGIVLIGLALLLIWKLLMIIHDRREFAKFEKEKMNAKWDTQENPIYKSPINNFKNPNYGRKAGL

For Talin-2 (Mus musculus), Q71LX4 Y376A, the “effect of a mutation on the interaction” value with ITGB1, P05556-5 is “decreasing interaction”; with itb1_human ITGB1, “disrupting interaction”.
